# Laboratory results reported in the supplement of paper PMC12042874.
# ± gives the uncertainty stated by the source.
# Assay: amyloid nucleation score (Sup35N fusion, yeast selection) (log enrichment); library NNK1; higher = more nucleation; inactive = no reads after selection
# Procedure, shortened: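 Plasmid inserts were Illumina-sequenced at input and output from psi-negative yeast expressing Sup35N fused to peptides of 20 random codons. The yeast were induced with 100 μM copper sulfate for 24 hours and grown 7 days at 30°C on medium lacking adenine and uracil, and sequences with under 100 input reads were excluded. Nucleation score is the DiMSum log enrichment of output over input reads, centred on the mode score of non-aggregating sequences.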
row,Substance,amyloid nucleation score
1,NLNFLFFQWSNIMVCHQNQV,4.62 ± 0.057
2,TYCRQDRWVGSKKLSCTIDC,-0.025 ± 0.23
3,VFMIVCK,inactive
4,EVSIFGDRIHIELHLVGEVL,-1.12 ± 2.1
5,LVHVGSQHKTFTPCSMEFLI,inactive
6,ACSCDALRSNLAIIKRESRV,-0.766 ± 2.4
7,GSVINGWRRYLFVISILLGL,-0.374 ± 0.32
8,RHTETSLASSARKPALNPT,0.197 ± 0.41
9,LCQSYGCFVPYYLYDFHRVV,6.521 ± 0.059
10,WSINMCCMRSRLWNFDGRKE,4.04 ± 0.074
11,YDLGLIVSYDLLSVKEVPDR,1.48 ± 0.55
12,IGCQLNIRVCLKVILLYVEA,0.259 ± 0.95
13,KAVYLRVRGTHCVNNVALWK,3.43 ± 0.18
14,VLLYKSLAV,0.964 ± 0.15
15,SGGDFQCTRHMSVDLGLPVS,0.428 ± 0.64
16,RGLVFEGKLAFTVATVVFFW,-1.19 ± 1.4
17,TLFYFMACGQLLFGKRWNWF,0.095 ± 0.58
18,PMLNFEIMVRHDRRRLYKVC,0.714 ± 0.42
19,FSQLYMGMYPGHNLLKYHSG,-0.275 ± 0.22
20,MQNRCSCWNFECRAPW,1.06 ± 0.33
21,CGAMGVVL,0.112 ± 0.26
22,CTVDMEGFGFSRIVVDRGRS,-0.118 ± 0.6
23,VTMSDLATHNYREMNSLFSF,0.091 ± 0.28
24,FISRCSFAGSCVK,-1.27 ± 1.7
25,EVRSSFYPSHYYRALRDL,-1.37 ± 2.4

row,Substance,amyloid nucleation score
1,AWKGWFLMGYCGDRVMWDWR,-0.131 ± 0.73
2,RFRFMLVFSNLSLL,-0.022 ± 0.53
3,CIIVVSTRAADPDLCSYIML,0.234 ± 0.75
4,LMASDVT,0.127 ± 0.43
5,FGQSQPCDVTRENFCKEACN,-0.028 ± 0.9
6,YNCMEYSDARHKSSTVRLHY,-0.253 ± 0.62
7,ICVMSPGMESCGLVFGAWYT,0.61 ± 0.56
8,FYKLVSLREIGMIQVIRGLD,-0.395 ± 0.47
9,ITVRAISMWWRDSS,0.263 ± 0.4
10,AFNYRSVCWLLGTGSSSWSE,inactive
11,RKRPTGTHAVDVSRGFT,1.27 ± 0.71
12,NFLNGLMLTSRVRKFLASGY,-0.161 ± 0.6
13,LIGFSRVSSGFSPFTPAHCR,2.04 ± 0.14
14,MGRMS,0.22 ± 0.69
15,VLRLHAMRQQGICWSCVTGM,0.185 ± 0.39
16,GSPMFLRIYLETYLPTYELS,0.739 ± 0.42
17,VCYLGECRGHAIMEYWWSWR,2.4 ± 0.24
18,FSFRRFCLCMLREGHTRQLG,-0.957 ± 2.4
19,IDVFLNALSVWNVIVDLIIV,-0.225 ± 0.42
20,SVLGSHSRAKLITAWPTRKI,inactive
21,SHSFPGMWTDDTSALASREK,0.306 ± 0.59
22,NNTFIMLIF,6.98 ± 0.083
23,AVWLVQSHPN,0.499 ± 0.58
24,LKFNAP,-0.14 ± 1.4
25,LCVSCARVKLLNRT,-0.144 ± 0.55

row,Substance,amyloid nucleation score
1,CTPFMRTSLSFICSDSSVML,0.771 ± 0.82
2,GWQGL,-0.202 ± 0.53
3,KLSSKWTRACRHNSC,-0.134 ± 1.3
4,RRPNETS,-1.08 ± 2.4
5,KPGFYT,-0.705 ± 0.92
6,RINSGHIK,0.247 ± 0.33
7,LMDAEFIMVFTL,0.918 ± 0.2
8,LSFCDTQRMWSSDG,0.483 ± 0.85
9,DFFGWTNRNHQNSDSFLWDG,0.69 ± 0.41
10,PSGTGWRLDGSV,0.09 ± 0.38
11,MSFSPLLFVLATFCFGLWCW,-0.402 ± 0.78
12,DSCVFARSIVVNSNSFEVIE,0.061 ± 0.47
13,TYKFGYVHVDTFMTVLMHTL,-0.169 ± 0.31
14,KSRFSDGGSSWFCGTFMFYT,-0.723 ± 0.42
15,LTSRVQCKNNCFSD,2.38 ± 0.55
16,MTRNHFRYTWSVANMWERGF,-0.746 ± 1.3
17,RRTIYASLRLY,0.066 ± 0.29
18,TNIALLV,0.847 ± 0.42
19,LAGMMHAPVVLGLWSCDGDG,-0.974 ± 2.4
20,LITMGMTRIYILMISDYLKF,0.701 ± 0.51
21,IMDSSMGGSSKMYKVVANDL,0.311 ± 0.64
22,YLELLPAYRLFTGLVVLLMI,0.736 ± 0.13
23,RRYEFKRLGSMSDGVTLRSM,-0.759 ± 0.5
24,CSKSS,-0.909 ± 2.7
25,HLRCCIKTLRVSHYGGPALR,-0.596 ± 0.37

row,Substance,amyloid nucleation score
1,NEPHWSLLRF,-0.535 ± 0.65
2,GYCTPNDPVIFWDFRVMTGS,-0.544 ± 0.3
3,WTWILPMVRTIIYQY,-0.356 ± 0.27
4,SHFGNPLKIPVFNRWTQHKA,-0.263 ± 0.49
5,GRSCFGEHILNTPAISCNIT,-0.288 ± 0.35
6,QGRLYSH,0.438 ± 0.39
7,MVTTPFALTGFRDVMWCRAR,3.09 ± 0.092
8,LRSNHWNHTCLHNIRGCS,3.42 ± 0.071
9,VGHNGIFYC,-0.063 ± 0.29
10,PFSVWSPPMMDPVHNIFWVR,-0.203 ± 0.49
11,LVHSFMW,0.876 ± 0.51
12,CEWVWRGSVCSIWLLVLLPV,0.09 ± 0.41
13,LGCYTLESLGEYDNSNNWLL,0.932 ± 0.69
14,ESTSYCKSDYLVRFVFEDGL,-0.294 ± 0.39
15,DKLKLNRVRSSISSYNKQNK,1.06 ± 0.28
16,TMDGHLGYRSRNILLLSVFV,-0.41 ± 0.55
17,WSSHYVSLRKVCVCGRRPWS,3.46 ± 0.079
18,VRLAL,-0.27 ± 0.26
19,VSFLASMLRIGMCLPKQVMW,0.183 ± 0.8
20,PKMAPRNINVGRS,0.26 ± 0.54
21,KVPYLVDYISLVFFVFKVLF,-0.388 ± 0.34
22,FMTSDPYVLIHQALVRINEY,4.58 ± 0.095
23,CCRARDLIYLNITHAFFSIL,-0.289 ± 0.47
24,MFFGWGT,1.19 ± 0.34
25,YYCYLLTNHPNTNGSVAFRL,0.934 ± 0.44

row,Substance,amyloid nucleation score
1,VLFKGHLIEV,0.138 ± 0.3
2,DKEMECIYEYAL,0.523 ± 0.55
3,SMRLGKTIAVLVINEHGMLQ,2.17 ± 0.11
4,FIYLVLLSR,1.32 ± 0.23
5,LKRVQCNSDRAMWCVALVLT,0.314 ± 0.59
6,ALDQN,-0.412 ± 0.78
7,ESLREVTLYATKSLWMNLRL,-1.83 ± 1.1
8,FTLIIRDLMFSRHEFRVHAG,-0.213 ± 0.39
9,EGIIYS,-0.692 ± 1.1
10,NGYRNMSRREQTCLR,-0.055 ± 0.36
11,FWVQNMVGNFFNYYFDRGNQ,7.791 ± 0.045
12,ARGPLKSGINQNVCSCGTSI,0.118 ± 1.5
13,KGLEPLCLRSFFLWRERFRD,-0.686 ± 0.49
14,LEWANDLVNCSQRIM,-0.331 ± 0.88
15,YLAQIELRLV,0.053 ± 0.79
16,RSFSECLMSGHTIFQFGMYM,4.26 ± 0.14
17,AWLSGVNVVSKSQGCFLWYG,0.551 ± 0.56
18,DHGFLGE,-0.172 ± 0.76
19,YNSRGDCRTLVKRGMGNFCA,0.191 ± 0.32
20,SRNNCSNRRDYHGIYSMRIS,0.513 ± 0.79
21,SYAYKLETNSRFMIQWKVQY,3.48 ± 0.092
22,LAWYFTPFVDHS,1.13 ± 0.84
23,KPKCNHRDRTSLEILRNNAL,1.35 ± 0.43
24,HSVSRCLVNEGNGFSFCKDP,1.45 ± 0.39
25,CRRRMFLQVPRIYFEMRSYA,0.492 ± 0.91

row,Substance,amyloid nucleation score
1,TSEGHSLRNEEEGSSEGRCK,0.905 ± 0.51
2,KYGEVLLVTYTNP,0.577 ± 0.53
3,NYVIGRVIISMYGNDVTRLP,4.23 ± 0.095
4,NCFVWRRMFKLISFDPYRV,inactive
5,SFVFLRNL,0.142 ± 0.32
6,ISLRGRCITSKGSSYYAIKY,inactive
7,SRISMVMVLSLFSVKFRWNP,0.328 ± 0.24
8,QHVMPWPWWMGLSSLDRWYL,1.44 ± 0.49
9,RSVSLC,0.907 ± 0.61
10,TCLHYAVCMRSLVSQSALFV,-0.771 ± 1.7
11,FIISSTQPRCRAPLTS,-0.165 ± 0.56
12,MLGYIHAEVHVIVSWNLCLK,-0.378 ± 0.53
13,RFRFNWLNSQNLQRFVGTFK,0.433 ± 0.3
14,VERTCGVGTRLFTCYGQVAI,-0.3 ± 0.53
15,KMTCSPSH,0.867 ± 0.88
16,TFVYVKASLSSTIAASYVAQ,1.34 ± 0.27
17,MDSYLSSNCKCDTLDVGGNE,-1.17 ± 1.6
18,MKNFPLYSCP,-0.66 ± 0.69
19,MFAVMNGAVLSTPLDNVCRV,-0.581 ± 1.6
20,DTLHSNCCGSWPYDSSKRNV,0.95 ± 0.33
21,VTFWHVFLIFSYLSTCAWWW,-0.382 ± 1.2
22,HYVFRHAWDSSFDVNVGLAQ,0.564 ± 0.9
23,DWMFCTYCVTVFESQNVAVH,0.272 ± 0.27
24,SFWYYGDEKNVTVNLGFNES,-0.233 ± 0.79
25,FLPRSYCVFSWFHLSVSTAR,inactive

row,Substance,amyloid nucleation score
1,LVLGWRFIVPRVNLISLGFV,inactive
2,STVRSAPFSWLPGKYGWSKC,-0.214 ± 0.98
3,NIILSYLYFRTARVISEDRR,4.7 ± 0.081
4,MSCPRGILGSAIWTYSIGHS,-0.232 ± 1.7
5,FIRGLCNVLGCSR,1.04 ± 0.24
6,DSGVAVQMFEQTTGDPGIEG,-0.883 ± 0.76
7,TSDRTKSVLMVYSWV,-0.576 ± 0.92
8,SPPSLRNLNYIFAY,-0.948 ± 2.4
9,FSEVTLFFPKDAILEFSARC,-0.353 ± 0.79
10,LTMGRKMVPYHLVSAMMGTV,-0.114 ± 0.57
11,DWLMMDLL,0.103 ± 1.1
12,NNTFGLGNFTDSFCNIRSEK,0.572 ± 0.39
13,VIFYSLYSSVWFDSIYEGLT,-0.566 ± 1.5
14,GQAWKDAVQNYDMLAYMLKG,-0.375 ± 0.54
15,ARAFPNMPPVLILILHLRLY,0.961 ± 0.35
16,SVRVHFMVRHGLGVRLSASD,1.61 ± 0.16
17,DLYQCVHPMFHVWVCVTAGW,inactive
18,SCWPCQ,-1.09 ± 2.4
19,CVLSPALFMRARLLRGILGR,0.332 ± 0.72
20,TTGSLVCKAAPIWFVPTPAF,-1.09 ± 0.84
21,LHTMCGK,0.03 ± 0.97
